The values that follow are results of earlier work, collected in US7708978B2, “Targeted hydrophilic polymer, binders with interferon and medical composite comprising above binders” (Beijing Jiankai Technology Co., Ltd., priority 2002, dated 2010).

The conditions of the series: in vivo.

interferon α: the circulation half-life is 4 to 8 h.
